These results are taken from article PMC8429728 (Nature Communications, 2021).

For the experiment, the target named is T1, M1-linked tetra-ubiquitin (UniProt P0CG48 1-76; P0CG48 1-76; P0CG48 1-76; P0CG48 1-76, M1-linked).
T1 construct: ubiquitin, first of four head-to-tail repeats; ubiquitin, second repeat; ubiquitin, third repeat; ubiquitin, fourth repeat; also called M1-linked chains
Briefly: pull-down; GST fusion held on glutathione agarose, incubated with 0.5 μg of an individual tetra-ubiquitin chain, 2 h at 4 °C; 150 mM NaCl, 50 mM Tris pH 7.5, 0.1% IGEPAL, 5 mM DTT, 0.25 mg/mL BSA; immunoblotted for GST and ubiquitin. The settings on record: both partners purified. (In general: Immunoblotting shows a protein as a band on a membrane.)

B1: GST-TNK1-UBA (domain or fragment, human, UniProt Q13470 585-666, looked up)
chain: LLSDPELQRKIMEVELSVHGVTHQECQTALGATGGDVVSAIRNLKVDQLFHLSSRSRADCWRILEHYQWDLSAASRYVLARP
notes: TNK1, human, amino acid 585 to 666 (UBA domain), in pGEX-6P-1; also called GST-tagged recombinant TNK1 UBA; source: E. coli BL21; held on glutathione agarose and washed (pull-down); lysate loaded on anti-GST biosensors (BLI); not shown: GST, N-terminal, kept
Take B1: the binding result is recorded as “binds”.
